In publication PMC12572175 (2025):

Target: Protein A domain D (Staphylococcus aureus)
Assay: BLI

B1: n501 T77A (antibody)
chain: EVQLVESGGGLVQPGGSLRLSCAASDFTFRNYEMSWVRQAPGKGLEWVSSISGSGGSTYYAHSLKGRFAISRDNSKNTLYLQMNSLRAEDTAIYYCARLRDGFNNGFDYWGQGTLVTVSS
- Kd: 324 nM

B2: n501 N92A (antibody)
chain: EVQLVESGGGLVQPGGSLRLSCAASDFTFRNYEMSWVRQAPGKGLEWVSSISGSGGSTYYAHSLKGRFTISRDNSKNTLYLQMASLRAEDTAIYYCARLRDGFNNGFDYWGQGTLVTVSS
- Kd: 328 nM
